Laboratory results from article PMC4877809.

Molecular target: CotB3 (class I P450 hydroxylase of the cyclooctatin pathway) (Streptomyces melanosporofaciens MI614-43F2) (UniProt C9K1X6)
Sequence of UniProt C9K1X6 (C9K1X6 whole entry): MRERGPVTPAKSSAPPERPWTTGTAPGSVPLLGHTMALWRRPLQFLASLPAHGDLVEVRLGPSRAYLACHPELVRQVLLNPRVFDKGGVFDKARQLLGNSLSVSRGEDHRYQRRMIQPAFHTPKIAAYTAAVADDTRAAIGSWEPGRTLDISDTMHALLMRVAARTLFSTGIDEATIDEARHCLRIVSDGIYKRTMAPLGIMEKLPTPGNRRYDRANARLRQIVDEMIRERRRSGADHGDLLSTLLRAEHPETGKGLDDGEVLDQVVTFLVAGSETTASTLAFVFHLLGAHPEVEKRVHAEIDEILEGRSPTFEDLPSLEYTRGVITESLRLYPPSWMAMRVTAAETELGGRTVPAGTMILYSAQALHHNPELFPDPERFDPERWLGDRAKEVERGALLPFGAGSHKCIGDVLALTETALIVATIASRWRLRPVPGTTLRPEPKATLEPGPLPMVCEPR

whole cell catalysis in E. coli (CotB3 with PdR/Pdx-W106E): formation of cyclooctat-9-en-5,7-diol from added cyclooctat-9-en-7-ol, GC-MS: 100%
Substance: Pdx-W106E (putidaredoxin, ferredoxin of the Pseudomonas putida PdR·Pdx redox system, W106E mutant) (natural protein)
